Laboratory results as given in paper PMC3557595 (Journal of molecular biology, 2012).

Key:
[1] = molecular target: GS-CENP-A(60-140)-LVPR and H4^Hs(1-103) (human, UniProt P49450 60-140; P62805 1-103); test: SEC
[2] = molecular target: GS-CENP-A^Hs(60-140)-LVPR and GS-H4^Hs(22-103) (human, UniProt P49450 60-140; P62805 22-103); test: SEC
[3] = molecular target: Hs H3.1(1-136)(S88Q/G103H)-His6/H4(1-103) (human, UniProt P68431 1-136; P62805 1-103, S88Q | G103H); test: pull-down

Measured: binding result

B1: Hs GS-HJURP(2-81) (domain or fragment)
chain: GSLGTLRAMEGEDVEDDQLLQKLRASRRRFQRRMQRLIEKYNQPFEDTPVVQMATLTYETPQGLRIWGGRLIKERNEGEIQD
binds: [1] | [2] | [3]
